B1: STIM003_289_LAGA (bispecific antibody, V domains shown, not shown: a dimerising Fc or GST)
VH: EVQLVESGGGVVRPGGSLRLSCVASGVTFDDYGMSWVRQAPGKGLEWVSGINWNGGDTDYSDSVKGRFTISRDNAKNSLYLQMNSLRAEDTALYYCARDFYGSGSYYHVPFDYWGQGILVTVSS
VL: EIVLTQSPGTLSLSPGERATLSCRASQSVSRSYLAWYQQKRGQAPRLLIYGASSRATGIPDRFSGDGSGTDFTLSISRLEPEDFAVYYCHQYDMSPFTFGPGTKVDIK
notes: LAGA variant of STIM003_289
B2: STIM003_457_LAGA (bispecific antibody, V domains shown, not shown: a dimerising Fc or GST)
VH: B1 VH
VL: B1 VL
notes: LAGA variant of STIM003_457
B3: STIM001_289_LAGA (bispecific antibody, V domains shown, not shown: a dimerising Fc or GST)
VH: QVQVVQSGAEVKKPGASVKVSCKASGYTFSTFGITWVRQAPGQGLEWMGWISAYNGDTNYAQNLQGRVIMTTDTSTSTAYMELRSLRSDDTAVYYCARSSGHYYYYGMDVWGQGTTVTVSS
VL: DIVMTQSPLSLPVTPGEPASISCRSSQSLLHSNEYNYLDWYLQKPGQSPQLLIFLGSNRASGVPDRFSGSGSGTDFTLKITRVEAEDVGIYYCMQSLQTPLTFGGGTKVEIK
B4: STIM001_457_LAGA (bispecific antibody, V domains shown, not shown: a dimerising Fc or GST)
VH: B3 VH
VL: B3 VL
notes: LAGA variant of STIM001_457

biological target: T1, Biotinylated human ICOS protein (human, UniProt Q9Y6W8 21-140, limits assumed, biotinylated (sites not given)); assay: SPR ProteOn avidity format, biotinylated human ICOS on NLC chip, antibody analyte, 25 C
T1 construct: Captured on the NLC chip in the avidity SPR
T1 sequence: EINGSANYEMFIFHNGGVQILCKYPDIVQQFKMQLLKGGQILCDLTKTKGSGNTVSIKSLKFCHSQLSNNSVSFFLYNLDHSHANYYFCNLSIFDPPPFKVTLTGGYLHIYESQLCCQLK
Protocol: (§1) Biotinylated human ICOS protein diluted at 7.5 μg/mL in running buffer (1× HBS-EP+ Buffer Technova, cat. No. H8022) was captured on a NLC sensor chip (Bio-Rad, cat No 1765021). The surface was then blocked using biocytin (Sigma Aldrich, cat No B1758) at 1 mg/mL.
(§2) The assay was carried out at 25° C.
(§3) The buffer injection (i.e. 0 nM) was used to double reference the sensorgrams. The analysis was carried out using the equilibrium model inherent to the ProteOn's analysis software for each mAb² construct.

Binder	koff [s⁻¹]
B1	0.000278
B2	0.000232
B3	0.000354
B4	0.000332

biological target: T1, Biotinylated human ICOS protein; assay: SPR ProteOn avidity format, biotinylated human ICOS on NLC chip; calculated on-rate
Protocol: as §1, §2
The buffer injection (i.e. 0 nM) was used to double reference the sensorgrams. […]

Binder	kon [M⁻¹ s⁻¹]
B1	477000
B2	284000
B3	13900
B4	31300

biological target: T1, Biotinylated human ICOS protein; assay: SPR ProteOn avidity format, biotinylated human ICOS on NLC chip, antibody analyte; apparent KD from equilibrium, 25 C
Protocol: as §1, §2, §3

Binder	Kd [nM]
B1	0.6
B2	0.8
B3	25.4
B4	10.6

From patent US20240343810A1 (published 2024)
